From patent US20250353906A1

Target: human TNFα (human) (UniProt P01375)
Experiment: cell-based or functional assay

Sequence of human TNFα (human) (P01375 77-233 limits assumed): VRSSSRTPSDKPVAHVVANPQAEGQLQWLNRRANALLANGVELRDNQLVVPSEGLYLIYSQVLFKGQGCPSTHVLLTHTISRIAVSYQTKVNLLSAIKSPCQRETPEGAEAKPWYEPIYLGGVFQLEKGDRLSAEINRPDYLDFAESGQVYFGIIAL

- IC50 (nM, replicate 2), inhibition of TNFα signaling in HEK-BLUE TNFα cells: 0.07 nM
Substance: Etanercept (PRO078) (Fc fusion)
